Target: PA-BODIPY conjugate (Bacillus anthracis protective antigen conjugated to BODIPY FL) (Bacillus anthracis, UniProt P13423 30-764)
Sequence (P13423 30-764 limits assumed): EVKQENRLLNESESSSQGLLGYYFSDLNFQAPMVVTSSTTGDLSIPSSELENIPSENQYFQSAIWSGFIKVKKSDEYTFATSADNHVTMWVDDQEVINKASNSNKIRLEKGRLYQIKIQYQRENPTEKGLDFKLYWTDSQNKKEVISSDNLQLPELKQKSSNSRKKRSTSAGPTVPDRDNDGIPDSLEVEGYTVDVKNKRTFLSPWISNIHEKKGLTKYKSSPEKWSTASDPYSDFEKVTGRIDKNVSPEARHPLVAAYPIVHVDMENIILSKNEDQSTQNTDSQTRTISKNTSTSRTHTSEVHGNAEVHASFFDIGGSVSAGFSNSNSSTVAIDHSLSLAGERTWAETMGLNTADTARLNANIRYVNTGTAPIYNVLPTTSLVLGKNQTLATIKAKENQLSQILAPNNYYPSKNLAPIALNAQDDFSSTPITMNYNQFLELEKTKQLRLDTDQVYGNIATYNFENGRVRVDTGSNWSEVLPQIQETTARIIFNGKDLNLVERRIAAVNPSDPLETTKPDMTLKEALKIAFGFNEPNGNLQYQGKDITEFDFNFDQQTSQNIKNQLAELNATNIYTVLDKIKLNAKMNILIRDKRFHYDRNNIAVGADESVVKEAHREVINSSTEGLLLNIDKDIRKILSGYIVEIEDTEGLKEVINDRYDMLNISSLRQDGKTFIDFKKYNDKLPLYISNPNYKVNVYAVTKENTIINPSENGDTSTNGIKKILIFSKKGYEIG

B1: NlpA-[14B7 scFv] fusion anchored on the E. coli inner membrane (scFv)
scFv: CDQSSSDIQMTQTTSSLSASLGDRVTISCRASQDIRNYLNWYQQKPDGTVKLLIYYTSRLQSGVPSRFSGSGSGTDYSLTISNQEQEDIGTYFCQQGNTLPWTFGGGTKLEIKRGGGGSGGGGSGGGGSGGGGSEVQLQQSGPELVKPGASVKISCKDSGYAFSSSWMNWVKQRPGQGLEWIGRIYPGDGDTNYNGKFKGKATLTADKSSSTAYMQLSSLTSVDSAVYFCARSGLLRYAMDYWGQGTSVTVSS
fold higher mean fluorescence intensity compared to controls: ~9 fold

Reference: patent US20050106647A1 (University of Texas, published 2005)
